Results from the supplement of paper PMC10567573.

B1: GMCL1 (parent)
chain: RPDTGDDAAGHGFCYCAGSHKRKR

Variants of: B1
Assay: protein stability index of a GFP-peptide fusion (GPS, HEK-293T) (PSI 1-6); higher = more stable
Settings: c terminus: a fixed tail appended
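Further: lentivirally expressed fusions sorted by FACS into six bins by GFP to DsRed ratio, PSI derived from sequencing read proportions per bin multiplied by bin number.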

Variant	protein stability index
RPSTGDDAAGHGFCYCAGSHKRKR [D3S]	3.14
RPWTGDDAAGHGFCYCAGSHKRKR [D3W]	3.04
RPYTGDDAAGHGFCYCAGSHKRKR [D3Y]	3.15
RPTTGDDAAGHGFCYCAGSHKRKR [D3T]	2.86
RPMTGDDAAGHGFCYCAGSHKRKR [D3M]	2.3
RPFTGDDAAGHGFCYCAGSHKRKR [D3F]	2.76
RPHTGDDAAGHGFCYCAGSHKRKR [D3H]	3.4
RPNTGDDAAGHGFCYCAGSHKRKR [D3N]	3.31
RPATGDDAAGHGFCYCAGSHKRKR [D3A]	2.62
RPVTGDDAAGHGFCYCAGSHKRKR [D3V]	3.91
RPCTGDDAAGHGFCYCAGSHKRKR [D3C]	2.97
RPDQGDDAAGHGFCYCAGSHKRKR [T4Q]	3.47
RPDKGDDAAGHGFCYCAGSHKRKR [T4K]	3.14
RPDWGDDAAGHGFCYCAGSHKRKR [T4W]	2.71
RPDRGDDAAGHGFCYCAGSHKRKR [T4R]	3.6
RPDPGDDAAGHGFCYCAGSHKRKR [T4P]	2.96
RPDGGDDAAGHGFCYCAGSHKRKR [T4G]	3.93
RPDIGDDAAGHGFCYCAGSHKRKR [T4I]	3.06
RPDDGDDAAGHGFCYCAGSHKRKR [T4D]	3.79
RPDNGDDAAGHGFCYCAGSHKRKR [T4N]	2.97
RPDYGDDAAGHGFCYCAGSHKRKR [T4Y]	2.87
RPDCGDDAAGHGFCYCAGSHKRKR [T4C]	2.14
RPDHGDDAAGHGFCYCAGSHKRKR [T4H]	3.11
RPDLGDDAAGHGFCYCAGSHKRKR [T4L]	2.81

Variant	protein stability index
RPDFGDDAAGHGFCYCAGSHKRKR [T4F]	3.28
RPDSGDDAAGHGFCYCAGSHKRKR [T4S]	3.06
RPDVGDDAAGHGFCYCAGSHKRKR [T4V]	3
RPDAGDDAAGHGFCYCAGSHKRKR [T4A]	3.06
RPDMGDDAAGHGFCYCAGSHKRKR [T4M]	2.98
RPDEGDDAAGHGFCYCAGSHKRKR [T4E]	3.16
RIDTGDDAAGHGFCYCAGSHKRKR [P2I]	3.08
RNDTGDDAAGHGFCYCAGSHKRKR [P2N]	3.27
RYDTGDDAAGHGFCYCAGSHKRKR [P2Y]	3.41
REDTGDDAAGHGFCYCAGSHKRKR [P2E]	3.14
RCDTGDDAAGHGFCYCAGSHKRKR [P2C]	3.23
RVDTGDDAAGHGFCYCAGSHKRKR [P2V]	2.89
RGDTGDDAAGHGFCYCAGSHKRKR [P2G]	3.01
RLDTGDDAAGHGFCYCAGSHKRKR [P2L]	2.77
RMDTGDDAAGHGFCYCAGSHKRKR [P2M]	3.05
RWDTGDDAAGHGFCYCAGSHKRKR [P2W]	3.4
RTDTGDDAAGHGFCYCAGSHKRKR [P2T]	2.3
RADTGDDAAGHGFCYCAGSHKRKR [P2A]	3.02
RSDTGDDAAGHGFCYCAGSHKRKR [P2S]	2.95
RDDTGDDAAGHGFCYCAGSHKRKR [P2D]	3.46
RKDTGDDAAGHGFCYCAGSHKRKR [P2K]	3.35
RQDTGDDAAGHGFCYCAGSHKRKR [P2Q]	2.91
RFDTGDDAAGHGFCYCAGSHKRKR [P2F]	2.91
RHDTGDDAAGHGFCYCAGSHKRKR [P2H]	2.96

Variant	protein stability index
RRDTGDDAAGHGFCYCAGSHKRKR [P2R]	2.85
RPDTKDDAAGHGFCYCAGSHKRKR [G5K]	3.45
RPDTADDAAGHGFCYCAGSHKRKR [G5A]	3.37
RPDTCDDAAGHGFCYCAGSHKRKR [G5C]	3.63
RPDTMDDAAGHGFCYCAGSHKRKR [G5M]	2.84
RPDTWDDAAGHGFCYCAGSHKRKR [G5W]	2.59
RPDTFDDAAGHGFCYCAGSHKRKR [G5F]	2.59
RPDTNDDAAGHGFCYCAGSHKRKR [G5N]	3.17
RPDTLDDAAGHGFCYCAGSHKRKR [G5L]	3.1
RPDTHDDAAGHGFCYCAGSHKRKR [G5H]	2.48
RPDTTDDAAGHGFCYCAGSHKRKR [G5T]	2.97
RPDTQDDAAGHGFCYCAGSHKRKR [G5Q]	2.87
RPDTRDDAAGHGFCYCAGSHKRKR [G5R]	3.15
RPDTPDDAAGHGFCYCAGSHKRKR [G5P]	3.48
RPDTIDDAAGHGFCYCAGSHKRKR [G5I]	3.28
RPDTSDDAAGHGFCYCAGSHKRKR [G5S]	3.5
RPDTYDDAAGHGFCYCAGSHKRKR [G5Y]	3.27
RPDTDDDAAGHGFCYCAGSHKRKR [G5D]	2.89
RPDTEDDAAGHGFCYCAGSHKRKR [G5E]	2.93
RPDTVDDAAGHGFCYCAGSHKRKR [G5V]	2.99
RPDTGLDAAGHGFCYCAGSHKRKR [D6L]	3.13
RPDTGVDAAGHGFCYCAGSHKRKR [D6V]	2.93
RPDTGHDAAGHGFCYCAGSHKRKR [D6H]	2.8
RPDTGWDAAGHGFCYCAGSHKRKR [D6W]	2.99

Variant	protein stability index
RPDTGGDAAGHGFCYCAGSHKRKR [D6G]	3.16
RPDTGIDAAGHGFCYCAGSHKRKR [D6I]	3.05
RPDTGFDAAGHGFCYCAGSHKRKR [D6F]	2.73
RPDTGPDAAGHGFCYCAGSHKRKR [D6P]	2.96
RPDTGSDAAGHGFCYCAGSHKRKR [D6S]	2.97
RPDTGEDAAGHGFCYCAGSHKRKR [D6E]	3.46
RPDTGKDAAGHGFCYCAGSHKRKR [D6K]	3.27
RPDTGCDAAGHGFCYCAGSHKRKR [D6C]	3.8
RPDTGNDAAGHGFCYCAGSHKRKR [D6N]	3.57
RPDTGYDAAGHGFCYCAGSHKRKR [D6Y]	3.15
RPDTGQDAAGHGFCYCAGSHKRKR [D6Q]	3.46
RPDTGADAAGHGFCYCAGSHKRKR [D6A]	3.21
RPDTGRDAAGHGFCYCAGSHKRKR [D6R]	3.23
RPDTGTDAAGHGFCYCAGSHKRKR [D6T]	2.89
RPDTGMDAAGHGFCYCAGSHKRKR [D6M]	2.79
RPDTGDGAAGHGFCYCAGSHKRKR [D7G]	3.3
RPDTGDAAAGHGFCYCAGSHKRKR [D7A]	3.46
RPDTGDIAAGHGFCYCAGSHKRKR [D7I]	3.08
RPDTGDEAAGHGFCYCAGSHKRKR [D7E]	3.95
RPDTGDFAAGHGFCYCAGSHKRKR [D7F]	2.83
RPDTGDHAAGHGFCYCAGSHKRKR [D7H]	3.09
RPDTGDCAAGHGFCYCAGSHKRKR [D7C]	3.02
